The supplement of paper PMC10201428
± gives the standard deviation of the averaged measurements.

Legend:
[1] = test system: VchCAST RNA-guided transposition machinery (E. coli BL21(DE3) host, lacZ target); experiment: relative integration efficiency (T-RL orientation) vs wild-type transposon end (log2 (normalized fold change)); transposon end mutated: right end (5 bp flank + 75 bp right end); higher = more efficient transposition
Method: (§1)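 Pooled, barcoded VchCAST (Tn6677) mini-transposon donor libraries; each variable transposon-end sequence sits in a fixed pDonor mini-transposon context (10-bp barcode and cargo not included). Left- or right-end libraries were co-transformed with pEffector (TniQ-Cascade, TnsABC, lacZ crRNA, T7, 0.1 mM IPTG) into E. coli BL21(DE3) and grown 18 h at 37 C. T-LR and T-RL junction amplicons were sequenced; output/input barcode fold change was normalised to the mean of four wild-type barcodes and log2-transformed. Two biological replicates; zero-count/undetected variants carry floor values (-10 / -15), censored here. Barcode uncoupling by PCR recombination adds noise.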

[2] = test system: VchCAST RNA-guided transposition machinery (E. coli BL21(DE3) host, lacZ target); experiment: relative integration efficiency (T-LR orientation) vs wild-type transposon end (log2 (normalized fold change)); transposon end mutated: right end (5 bp flank + 75 bp right end); higher = more efficient transposition
Method: as §1

| Sequence | relative integration efficiency (log2) [1] | relative integration efficiency (log2) [2] |
| --- | --- | --- |
| ACATTGGTTCATACAACCATAAAATGATAATTACACCCATAAATGGATAATTATCACACCCAATTTAACTATAACGCTCTGATCATAGTCAGACCAACATTGCTACGACCCGTATTCGCACCGACAC | -7.74 ± 0.3 | -5.92 ± 3.5 |
| ACATTGGTTCATACAACCATAAAATGATAATTACACCCATAAATTCATAATTATCACACCCAATTTAACTATAACGCTCTGATCATAGTCAGACCAACATTGCTACGACCCGTATTCGCACCGACAC | -6.669 ± 0.029 | -6.28 ± 2.6 |
| ACATTGGTTCATACAACCATAAAATGATAATTACACCCATAAATTCATCATTATCACACCCAATTTAACTATAACGCTCTGATCATAGTCAGACCAACATTGCTACGACCCGTATTCGCACCGACAC | -7.13 ± 0.28 | -6.18 ± 1.9 |
| ACATTGGTTCATACAACCATAAAATGATAATTACACCCATAAATTGATAATTATCACACCCAATTTAACTATAACGCTCTGATCATAGTCAGACCAACATTGCTACGACCCGTATTCGCACCGACAC | -7.42 ± 0.14 | -4.38 ± 1.6 |
| ACATTGGTTGATACAACCATAAAATGATAATTACACCCATAAATGGATAATTATCACACCCAATTTAACTATAACGCTCTGATCATAGTCAGACCAACATTGCTACGACCCGTATTCGCACCGACAC | -7.99 ± 0.69 | -5.61 ± 0.44 |
| ACATTGGTTGATACAACCATAAAATGATAATTACACCCATAAATGGATCATTATCACACCCAATTTAACTATAACGCTCTGATCATAGTCAGACCAACATTGCTACGACCCGTATTCGCACCGACAC | -7.55 ± 0.43 | -5.25 ± 0.34 |
| ACATTGGTTGATACAACCATAAAATGATAATTACACCCATAAATTCATAATTATCACACCCAATTTAACTATAACGCTCTGATCATAGTCAGACCAACATTGCTACGACCCGTATTCGCACCGACAC | -6.39 ± 0.064 | -5.532 ± 0.042 |
| ACATTGGTTGATACAACCATAAAATGATAATTACACCCATAAATTCATCATTATCACACCCAATTTAACTATAACGCTCTGATCATAGTCAGACCAACATTGCTACGACCCGTATTCGCACCGACAC | -7.43 ± 0.34 | -5.884 ± 0.042 |
| ACATTGGTTGATACAACCATAAAATGATAATTACACCCATAAATTGATCATTATCACACCCAATTTAACTATAACGCTCTGATCATAGTCAGACCAACATTGCTACGACCCGTATTCGCACCGACAC | -7.17 ± 0.13 | -6.54 ± 2 |
| ACATTGTTTGATACAACCATAAAATGATAATTACACCCATAAATTGATAATTATCACACCCATAAATTGATATTGCCTCTGATCATAGTCAGACCAACATTGCTACGACCCGTATTCGCACCGACAC | -6.33 ± 0.24 | -4.94 ± 0.3 |
| ACATTTCATGATACAACCATAAAATGATAATTACACCCATAAATTGATAATTATCACACCCATAAATTGATATTGCCTCTGATCATAGTCAGACCAACATTGCTACGACCCGTATTCGCACCGACAC | -4.85 ± 0.79 | -5.68 ± 0.91 |
| ACATTTCTCGATACAACCATAAAATGATAATTACACCCATAAATGGATAATTATCACACCCAATTTAACTATAACGCTCTGATCATAGTCAGACCAACATTGCTACGACCCGTATTCGCACCGACAC | -1.99 ± 0.23 | 0.276 ± 0.061 |
| ACATTTCTCGATACAACCATAAAATGATAATTACACCCATAAATGGATCATTATCACACCCAATTTAACTATAACGCTCTGATCATAGTCAGACCAACATTGCTACGACCCGTATTCGCACCGACAC | -2.3 ± 0.27 | 0.0432 ± 0.045 |
| ACATTTCTCGATACAACCATAAAATGATAATTACACCCATAAATTCATAATTATCACACCCAATTTAACTATAACGCTCTGATCATAGTCAGACCAACATTGCTACGACCCGTATTCGCACCGACAC | -1.95 ± 0.18 | 0.496 ± 0.27 |
| ACATTTCTCGATACAACCATAAAATGATAATTACACCCATAAATTCATCATTATCACACCCAATTTAACTATAACGCTCTGATCATAGTCAGACCAACATTGCTACGACCCGTATTCGCACCGACAC | -3.05 ± 0.46 | 0.303 ± 0.055 |
| ACATTTCTCGATACAACCATAAAATGATAATTACACCCATAAATTGATAATTATCACACCCAATTTAACTATAACGCTCTGATCATAGTCAGACCAACATTGCTACGACCCGTATTCGCACCGACAC | -1.57 ± 0.34 | 1 ± 0.028 |
